Each binder was assayed against streptavidin, P22629 (assay: SPR, BIAcore X100, streptavidin on CM5 chip, peptide in solution).
Chain of streptavidin, P22629 (P22629 37-163 limits assumed): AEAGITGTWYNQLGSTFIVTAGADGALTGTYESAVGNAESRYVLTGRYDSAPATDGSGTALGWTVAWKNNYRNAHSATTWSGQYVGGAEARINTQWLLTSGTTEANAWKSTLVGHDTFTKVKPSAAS

Row | Binder | Kd [µM]
1 | QNDHPQNGGQ (modifications not checked) | 10.8
2 | NQPWQ (modifications not checked) [head-to-tail cyclic NQpWQ peptide] | 61.3
3 | H-LYDHPQNGGQ-OH | 100
4 | LYDHPQNGGQ (modifications not checked) | 9.4
5 | H-QNDHPQNGGQ-OH | 320

From US20160367961A1, “METHOD AND COMPOSITION FOR PEPTIDE C[…] PROTEASE TREATMENT” (Roche Sequencing Solutions, Inc., priority 2015, published 2016)
